Changes are numbered by the printed parent chain.
B1: CODV-Fab 7G3x4E7 antibody-like binding protein (bispecific antibody)
light: DVVMTQTPVSLSVSLGGQVSISCRSSQSLEHNNGNTYLSWYLQKPGQSPQPLIYKVSNRFSGISDRFSGSGSGTDFTLKISRVEPDDLGVYYCGQGTQYPFTFGPGTKLELKGQPKAAPDFVMTQSPSSLTVTAGEKVTMSCKSSQSLLNSGNQKNYLTWYLQKPGQPPKLLIYWASTRESGVPDRFTGSGSGTDFTLTISSVQAEDLAVYYCQNDYSYPYTFGGGTKLEIKTKGPSRTVAAPSVFIFPPSDEQLKSGTASVVCLLNNFYPREAKVQWKVDNALQSGNSQESVTEQDSKDSTYSLSSTLTLSKADYEKHKVYACEVTHQGLSSPVTKSFNRGEC
heavy: EVQLQQSGPELVKPGASVKMSCKASGYTFTDYYMKWVKQSHGKSLEWIGDIIPSNGATFYNQKFKGKATLTVDRSSSTAYMHLNSLTSEDSAVYYCTRSHLLRASWFAYWGQGTLVTVSASEVQVVETGGSLVQPGKSLKLTCATSGFTFSNAWMHWVRQSPEKQLEWVAQIKDKSNNYATYYAESLKGRFTISRDDPKRSIYLQMNSLREEDTAIYYCRYVHYGIGYAMDAWGQGTSVTVSSRTASTKGPSVFPLAPSSKSTSGGTAALGCLVKDYFPEPVTVSWNSGALTSGVHTFPAVLQSSGLYSLSSVVTVPSSSLGTQTYICNVNHKPSNTKVDKKVEPKSCDKTHTHHHHHH
notes: also called 7G3 × 4E7
B2: CODV-Fab 7G3x18F5 antibody-like binding protein (bispecific antibody)
light: B1 light with V3L, E30V, N32T, P51L, F60L, Q98H, P105A
heavy: EVQLQQSGPELVKPGASVKMSCKASGYTFTDYYMKWVKQSHGKSLEWIGDIIPSNGATFYNQKFKGKATLTVDRSSSTAYMHLNSLTSEDSAVYYCTRSHLLRASWFAYWGQGTLVTVSASEVQVVETGGSLVQPGKSLKLTCATSGFTFTNAWMHWVRRSPEKQLEWVAQIKDKSNNYATYYAESVKGRFTISRDDSKSSIYLQMNSLKEEDTAIYYCRYVHYRFAYALDAWGRGTSVSVSSRTASTKGPSVFPLAPSSKSTSGGTAALGCLVKDYFPEPVTVSWNSGALTSGVHTFPAVLQSSGLYSLSSVVTVPSSSLGTQTYICNVNHKPSNTKVDKKVEPKSCDKTHTHHHHHH
B3: CODV-Fab 7G3x4B4 antibody-like binding protein (bispecific antibody)
light: B1 light with E30V, N32D, Y41S, K44R, P51V, I63T, S68T, P105S, L111I
heavy: EVQLQQSGPELVKPGASVKMSCKASGYTFTDYYMKWVKQSHGKSLEWIGDIIPSNGATFYNQKFKGKATLTVDRSSSTAYMHLNSLTSEDSAVYYCTRSHLLRASWFAYWGQGTLVTVSASEVQLVETGGRLVQPGRSLKLTCATSGFTFSNAWMHWVRQSPEKQLEWVAQIKARSNNYATYYAESVKGRFTISRDDSKSTIYLQMNSLKEEDTAIYYCRGTYYASKPFDYWGQGVMVTVSSRTASTKGPSVFPLAPSSKSTSGGTAALGCLVKDYFPEPVTVSWNSGALTSGVHTFPAVLQSSGLYSLSSVVTVPSSSLGTQTYICNVNHKPSNTKVDKKVEPKSCDKTHTHHHHHH
notes: also called 7G3 × 4B4
B4: 4B4-D7 Fab (Fab, V domains shown)
VH: EVQLVETGGRLVQPGRSLKLTCATSGFTFSNAWMHWVRQSPEKQLEWVAQIKARSNNYATYYAESVKGRFTISRDDSKSTIYLQMNSLKEEDTAIYYCRGTYYASKPFDYWGQGVMVTVSS
VL: DVVMTQTPVSLSVSLGGQVSISCRSSQSLVHDNGNTYLSWSLQRPGQSPQVLIYKVSNRFSGTSDRFTGSGSGTDFTLKISRVEPDDLGVYYCGQGTQYPFTFGSGTKLEIKR
notes: also called BDW-4B4-D7
B5: 4E7-C9 Fab (Fab, V domains shown)
VH: EVQVVETGGSLVQPGKSLKLTCATSGFTFSNAWMHWVRQSPEKQLEWVAQIKDKSNNYATYYAESLKGRFTISRDDPKRSIYLQMNSLREEDTAIYYCRYVHYGIGYAMDAWGQGTSVTVSS
VL: B4 VL with V30E, D32N, S41Y, R44K, V51P, T63I, T68S, S105P, I111L
notes: also called BDX-4E7-C9
B6: 20G6-F3 Fab (Fab, V domains shown)
VH: B4 VH with R10S, R16K, S30T, N31K, A53D, R54K, N57S, T101V, S105L, K106S
VL: B4 VL with D32N, S41Y, R44K, V51S, T63F, T68S, E84D
notes: also called BDW-20G6-F3

Experiments:
[1] = target: human CD123 (IL3RA) on cells (human, UniProt P26951 19-378); assay: cell-based or functional assay
[2] = target: T1, human CD3ε/δ-Fc fusion protein (soluble recombinant CD3ε/δ complex) (human, UniProt P04234 22-105); assay: SPR Biacore, CODV-Fab
T1 construct: also called huCD3ε/δ; huCD3; not shown: hinge, CH2, CH3 of human IgG with tag
Method: (§1) Binding affinities of anti-CD3 binding Fabs or CODV-Fabs were measured by surface plasmon resonance (SPR) using a Biacore3000 instrument (GE Healthcare). Assay buffer was HBS-EP (BR-1001-88, GE Healthcare). Capture of CD3ε/δ-Fc fusion proteins was achieved using the human antibody capture kit (GE Healthcare). […] The CD3εδ-Fc fusions proteins were captured at 10 μl/min to approx. 70 RU to yield Rmax values of 30 RU. Binding kinetics with the anti-CD3 Fabs or CODV-Fabs was measured at 30 μl/min for 240 sec. and 600 sec. for association and dissociation phase, respectively. Twofold dilutions of Fabs from 3 to 400 nM in assay buffer were used. All Fab concentrations were run in duplicate together with duplicate buffer blanks for double referencing. Regeneration of the capture surface was performed with a 1 min injection of 3M MgCl2 solution at 30 μl/min. For data analysis the BIAevaluation software v.4.1 (GE Healthcare) was used. Data were fit globally using a 1:1 Langmuir model with mass transfer.

[3] = target: T1, human CD3ε/δ-Fc fusion protein (soluble …); assay: SPR Biacore, Fab
Method: as §1

[4] = target: T2, human CD3δ expressed alone on HEK293F cells (human, UniProt P04234 22-171); assay: flow cytometry, HEK293F transfected with huCD3δ
T2 construct: entry includes the signal peptide; also called huCD3δ
Method: (§2) To analyze binding of antibodies to human CD3ε and human CD3δ expressed on the surface of cells, HEK293F cells were transfected with both constructs either alone or in co-transfection and signals were measured by flow cytometry. For transfection procedure FuGENE HD Transfection Reagent (Promega, #E2311) was used according to manufacturer's protocol.
Cells were incubated on a shaker at 37° C. and 5% CO2. At day one to three after transfection cells were harvested and binding of antibodies was analyzed by flow cytometry.
(§3) Antibodies for staining were seeded at 1 μg in 50 μl per well Stain Buffer with FBS (BD Pharmingen) in 96-well U-bottom suspension culture plates (Greiner bio-one). Harvested transfected cells were resuspended in Stain Buffer with FBS and were added at 50 μl per well to the antibodies. Cells were incubated at 4° C. in the dark for 30 min and were washed twice. 0.5 μg secondary antibody Goat F(ab′)2 Anti-Human IgG-FITC (Beckman Coulter, #732598) or Goat F(ab′)2 Anti-Human kappa-PE (Southern Biotech, #206209), respectively, in combination with 0.5 μg 7-AAD per well was added in 100 μl Stain Buffer with FBS. Cells were incubated at 4° C. in the dark for 15 min and were washed twice. For measurement, cells were resuspended in 200 μl Stain Buffer with FBS. Cells were measured using the MACSQuant (Miltenyi Biotec) or LSRII (BD) flow cytometer, respectively. Further data analyses were performed using the FlowJo software (Tree Star, Inc.).

[5] = target: T3, human CD3 (TCR complex) on primary human T cells or Jurkat cells (human, UniProt P07766 23-207); assay: flow cytometry, primary human T cells
T3 construct: on the cells it stands in the whole TCR/CD3 complex; also called Jurkat E6-1 (expressing human TCR)
Method: The binding capacity of the CD3-Fabs was determined by flow cytometry. Primary human T cells were used as target cells. Therefore, peripheral blood mononuclear cells (PBMCs) were isolated from 200 ml peripheral blood of healthy donors treated with EDTA by Ficoll density centrifugation. 15 ml Histopaque (Sigma-Aldrich) was preloaded on a 50 ml Leucosep-Tube (Greiner bio-one). Blood was diluted with autoMACS Rinsing Buffer+1% BSA (Miltenyi Biotec) and loaded on the membrane of a total of ten prepared tubes. Tubes were centrifuged without brake for 10 min at 1000 xg. PBMCs were collected and washed with autoMACS Rinsing Buffer+1% BSA three times. Finally, PBMCs were resuspended in autoMACS Running Buffer (Miltenyi Biotec) for isolation of T lymphocytes by autoMACSpro technology using the Pan T Cell isolation Kit (Miltenyi Biotec) according to manufacturer's instructions. Purity of separated T cells was analyzed by MACSQuant flow cytometry using the human 7-Color Immunophenotyping Kit (Miltenyi Biotec). Isolated T cells were resuspended in Stain Buffer with FBS (BD Pharmingen) and 1E5 cells in 100 μl per well were seeded in 96-well U-bottom suspension culture plates (Greiner bio-one). Fab antibodies were diluted 1:3 in serial in PBS (Invitrogen) and 5 μl each were added to the cells at a final maximum concentration of 30000 ng/ml. The assay was incubated for 45 min at 4° C. Cells were washed twice with Stain Buffer with FBS and 1 μg secondary antibody Goat F(ab′)2 Anti-Human kappa-FITC (Beckman Coulter, #732621) per well was added in 100 μl Stain Buffer with FBS per well. The assay was incubated for 20 min at 4° C. and washed twice afterwards. Cells were resuspended in 150 μl Stain Buffer with FBS per well and were measured using the MACSQuant (Miltenyi Biotec) or LSRII (BD) flow cytometer. Further data analyses were performed using the FlowJo software (Tree Star, Inc.). Read out was percentage of cells positive for antibody binding. Cells treated only with the secondary but no primary antibody were used to set the gates. EC50 Curves were calculated by XLfit (Algorithm 205), EC50 values were calculated as inflection point of the slope (data are shown in table 6).

[6] = target: T4, human CD3ε and CD3δ co-expressed on HEK293F cells (human, UniProt P07766 23-207; P04234 22-171); assay: flow cytometry, transfected HEK293F
T4 construct: also called huCD3ε/δ (transfected cells); huCD3e + huCD3d
Method: as §2, §3

[7] = target: T5, human CD3ε expressed alone on HEK293F cells (human, UniProt P07766 23-207); assay: flow cytometry, transfected HEK293F
T5 construct: also called huCD3ε
Method: as §2, §3

[8] = target: T1, human CD3ε/δ-Fc fusion protein (soluble …); assay: SPR Biacore, Fab; remark: listed apart in the source
Method: as §1

[9] = target: T1, human CD3ε/δ-Fc fusion protein (soluble …); assay: SPR Biacore, CD3εδ-Fc captured, Fab analyte
Method: as §1

[10] = target: recombinant huCD3ε/γ protein with Fc-tag (PB01225) (human, UniProt P07766 23-126; P09693 23-116); assay: SPR, CD3-Fc captured, Fab 100 nM
Method: (§4) Binding was tested by SPR using a BIAcore3000 instrument run with HBS-EP buffer. Recombinant huCD3 proteins (ε/δ (PB01226), ε/γ (PB01225)) were captured at 10 μl/min via Fc-tag by anti-human Fc capture antibody MAB1302 (Millipore) immobilized on a CM5 sensor chip. Anti-CD3 Fabs were used as analytes at 100 nM with association and dissociation times of 240 sec and 300 sec, respectively at 30 μl/min. After each cycle the surfaces were regenerated by a 2 min pulse of 10 mM glycine buffer pH2.5.

[11] = target: T1, human CD3ε/δ-Fc fusion protein (soluble …); assay: SPR, CD3-Fc captured, Fab 100 nM
Method: as §4

T1 sequence (chain, as listed by the source mutant, chain 1 of 2): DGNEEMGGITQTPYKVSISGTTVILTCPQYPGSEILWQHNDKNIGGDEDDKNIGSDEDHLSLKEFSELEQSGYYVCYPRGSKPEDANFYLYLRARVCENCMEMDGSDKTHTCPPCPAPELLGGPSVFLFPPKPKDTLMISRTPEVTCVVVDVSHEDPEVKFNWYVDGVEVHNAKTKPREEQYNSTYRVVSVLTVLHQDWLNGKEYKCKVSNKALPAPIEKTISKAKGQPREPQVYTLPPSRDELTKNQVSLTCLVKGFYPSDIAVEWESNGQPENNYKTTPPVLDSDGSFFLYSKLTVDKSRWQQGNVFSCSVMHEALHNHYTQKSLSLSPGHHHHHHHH
T1 sequence (P04234 22-105, stated change not applied, chain 2 of 2): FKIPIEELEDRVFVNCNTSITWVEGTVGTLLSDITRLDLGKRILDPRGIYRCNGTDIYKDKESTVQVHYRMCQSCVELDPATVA
Chain of human CD123 (IL3RA) on cells (P26951 19-378): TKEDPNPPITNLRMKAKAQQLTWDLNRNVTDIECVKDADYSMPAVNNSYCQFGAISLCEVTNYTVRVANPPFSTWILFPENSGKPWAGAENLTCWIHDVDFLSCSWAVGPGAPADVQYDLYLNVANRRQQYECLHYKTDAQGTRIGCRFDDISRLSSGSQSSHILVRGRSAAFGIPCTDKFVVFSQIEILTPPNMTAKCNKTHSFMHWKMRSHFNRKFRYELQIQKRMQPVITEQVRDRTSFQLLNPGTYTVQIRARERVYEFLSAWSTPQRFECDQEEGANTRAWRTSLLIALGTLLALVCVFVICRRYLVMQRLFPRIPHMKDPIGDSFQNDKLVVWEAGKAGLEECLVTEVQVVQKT
T2 sequence (P04234 22-171 limits assumed, stated change not applied): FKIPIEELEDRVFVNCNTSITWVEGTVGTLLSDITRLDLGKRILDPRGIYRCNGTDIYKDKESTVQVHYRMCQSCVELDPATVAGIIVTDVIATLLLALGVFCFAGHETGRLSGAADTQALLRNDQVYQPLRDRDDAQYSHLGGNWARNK

Row | Binder | Activity EC50 [ng/ml], cytotoxic assay on THP-1 with human T cells [1] | Kd [2] | koff [2] | kon [2] | Kd [3] | koff [3] | kon [3] | binding result [4] | EC50 [5] | % antibody positive transfected cells [6] | % antibody positive transfected cells [7] | Kd [8] | koff [8] | kon [8] | Kd [9] | koff [9] | kon [9] | RU of Fab binding at 100 nM [10] | RU of Fab binding at 100 nM [11]
1 | B1 | 12 ng/mL | 16 nM | 0.0019 s⁻¹ | 120000 M⁻¹ s⁻¹ | – | – | – | – | – | – | – | – | – | – | – | – | – | – | –
2 | B2 | 61 ng/mL | – | – | – | – | – | – | – | – | – | – | – | – | – | – | – | – | – | –
3 | B3 | 11 ng/mL | 17 nM | 0.0044 s⁻¹ | 270000 M⁻¹ s⁻¹ | – | – | – | – | – | – | – | – | – | – | – | – | – | – | –
4 | B4 | – | – | – | – | 27 nM | 0.0029 s⁻¹ | 110000 M⁻¹ s⁻¹ | no binding (tested: <20% of binding of huCD3e + huCD3d) | 15.3 nM | 69.5% | 71.5% | 8.79 nM | 0.00285 s⁻¹ | 326000 M⁻¹ s⁻¹ | 27 nM | 0.0029 s⁻¹ | 110000 M⁻¹ s⁻¹ | 3 RU | 11 RU
5 | B5 | – | – | – | – | 17 nM | 0.0015 s⁻¹ | 89000 M⁻¹ s⁻¹ | no binding (tested: <20% of binding of huCD3e + huCD3d) | 6.2 nM | 66.4% | 69% | – | – | – | 17 nM | 0.0016 s⁻¹ | 89000 M⁻¹ s⁻¹ | 6 RU | 8 RU
6 | B6 | – | – | – | – | 8 nM | 0.00027 s⁻¹ | 35000 M⁻¹ s⁻¹ | no binding (tested: <20% of binding of huCD3e + huCD3d) | 14 nM | 67.4% | 68.6% | – | – | – | 7.7 nM | 0.00027 s⁻¹ | 35000 M⁻¹ s⁻¹ | 4 RU | 7 RU

Source: patent US20210292423A1 (published 2021)
